Reference: the nanobody polyreactivity screen of Harvey et al. (2022)

Assay: yeast display, Sf9 membrane polyspecificity reagent, FACS + sequencing; frameworks hold sequencing errors
Summary of the method: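 Galactose induction of a Saccharomyces cerevisiae BJ5465 synthetic nanobody display library ran 36–48 hours. The cells were then stained for 1 hour at 4 °C with 10% biotinylated, detergent-solubilized Sf9 membrane reagent, pulled down on streptavidin microbeads and FACS-sorted into low and high (top ~1%) gates on expression and reagent-binding fluorescence. Labels for polyreactivity follow the gate of origin.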
In the case of “QVQLVESGGGLVQAGGSLRLSCAASGGTLQGNAMGWYRQAPGKERELVAAISSRGGRTYYADSVKGRFTISRDNAKNTVYLQMNSLKPEDTAVYYCAAVQNGDSTLLRTKGGYWGQGTQVTVSS”, the “polyreactivity (PSR sort gate)” value is reported as “high polyreactivity”.
With “QVQLVESGGGLVQAGGRRRLSCAASGSTYNPYPMGWYRQAPGKERELLATITWRGTSTYYADSVKGRFTISRDNAKYTVYLQMNSLKPEDTAVYYGAKGFVYNYPKTYKSYSTYYYWGQGTQVTVSS” the “polyreactivity (PSR sort gate)” value was “high polyreactivity”.
In the case of “QVQLVESGGGLVHAGGSLRLSCAASGGILVFYAMGWYRQAPGKERELVAAINVSGGSTYYADSVKGRYTISRDNAKNTVYLQMNSLKPEDTAVYYCAALGPYLDYGVQYGYWGQGTQVTVSS”, the “polyreactivity (PSR sort gate)” value is reported as “low polyreactivity”.
With “QVQLVESGGGLVQAGGSLRLSCAASGSTFRYNAMGWYRQAPWKERELVAAITSGGSTYYADSVKGRFTISRDNAKNTVYLQMNSLKPEDTAVYYCAALWQSRWYKMDYWGQGTQVTVSS” the “polyreactivity (PSR sort gate)” value was “high polyreactivity”.
In the case of “QVQLVESGGGLVQAGGSLRLSCAASGYIFYFNAMAWYRQAPGKEMELVAVISDRDDSTYYADSVKGRFTISRDNAKNTVYLHMNSLKPEDTAVYYCAADGDTYYNYYHWGQGTQVTVSS”, the “polyreactivity (PSR sort gate)” value is reported as “low polyreactivity”.
In the case of “QVQLVESGGGLVQAGGSLRLSCAASGIIFRGYAMGWYREAPGKERELVAAIRDRGGSTYYADSVKGRFTISRDNAKNTVYLQMNSLKPEDTAVYYCATENRVYRHPGYDYDYWGQGTQVTVSS”, the “polyreactivity (PSR sort gate)” value is reported as “low polyreactivity”.
For “QVQLVESGGGLVQAGGSLRLSCSACGFIFPSYVMGWYRQAPGKERELVATISRSGGSTYYADSVKGRFTISRDNAKNTVYLQMNSLKPEDTAVYYCATRRRCRYSPYSPYDYWGQGTQVTVTS”, the “polyreactivity (PSR sort gate)” value was “high polyreactivity”.
In the case of “QVQLVESGGGLVQAGGSLRLSCAASGIIFVRYAMGWYIQAPGKERELVAAINSRGNTYYADSVKGRFTISRDNAKNSVYLQMNSLKPEDTAVYYCAKYNSWGQGTQVTVSS”, the “polyreactivity (PSR sort gate)” value is reported as “high polyreactivity”.
For “QVQLVESGGGLVQAGGSLRLSCAASGFIFSYYAMGWYRQAPGKERELVAAISSSGSRTYYADSVKGRFTISRDNAKNTVYLQMNSLKPEDTAVYYCNARTTSGWGQGTQVTVSS”, the “polyreactivity (PSR sort gate)” value was “high polyreactivity”.
With “QVQLVESGGGLVQAGGSLRLSCAASGSIFVNYAMGWYSQAPGTERELVAAISWRGGITYGVSVKGRFTISRDNAKNTVYLQMNSLKPEDTADYYSNTDGDDFFHVIYDYWAQGTQVTVSS” the “polyreactivity (PSR sort gate)” value was “low polyreactivity”.
In the case of “QVQLVETAGGLVKAGCSLRLSCAASGRIFYIYAMAWYRQSPGKESELLAAISTGGGGTYYADSVKGRFTISRDNAKNTVYLQMNSLKPEDTAVYYCAATSPLSLDEDYWGQGTQVTVSS”, the “polyreactivity (PSR sort gate)” value is reported as “high polyreactivity”.
With “QVQLVESGGGLVQAGGIIRLSCAASGLIFSRYAMGWYRQAPGKETELVAAITQSGTSTYYADSVKGRFTISRDNANNTVYLQMTILKPEDTAVYYCNAYPQYRYDYWGQGTQVTVSS” the “polyreactivity (PSR sort gate)” value was “low polyreactivity”.
With “QVQLVESGGGLVQAGGSLRLSCAASGSILFKNAMGWYRQAPGKERELVAAISTSGGRTYYADSVKGRFTISRDNAKNTVSLQMNSLKPEDTAVYYCAAVYPRQVSQVWRDDYWGQGTQVTVSS” the “polyreactivity (PSR sort gate)” value was “high polyreactivity”.
For “QVQLVESGGGLVQAAGSLRLSCAASGRTFFPYAMGWYRQAPGKEREFVAAITKTDDSTYYADSVKGRFTISRDNAKNTVYLQMNSLKPEDSAVYYCNAGDTQIRFYYWGQVTQVTVSS”, the “polyreactivity (PSR sort gate)” value was “low polyreactivity”.
In the case of “QVQLVETGAGLVQAGGSLRLSSAASGRTLYPYAMGWSRQSPGNERELVAAISSRGGSTYYADSVKGRFTISRDIAKNTVYLQMNSLKPEDTAVYYCAKTYRKILSITGDVPWTDYYWGQGTQVTVSS”, the “polyreactivity (PSR sort gate)” value is reported as “low polyreactivity”.
For “QVQLVESGGGLVQAGGSLRLSCAASGSIFNYYAMGWYRPAPGKERELVAGITTSGGSTYYADSVKGRFTISRDNAKNTVYLQMNSLKPEDTAVYYCAAYDYISSTYFLDDYWGQGTQVTVSS”, the “polyreactivity (PSR sort gate)” value was “low polyreactivity”.
In the case of “QVQLVESGGGLVQAGGSLRLSCAASGRILGRYAMGWYRQAPGKEREVVATITSGDDTNYADSVKGRFTISRDHAKNTVYLQMNSLKPEDTAVGFWGQGSQVTVSS”, the “polyreactivity (PSR sort gate)” value is reported as “low polyreactivity”.
For “QVQLVESGGGLVQAGGSLRLSCAASGRTFWGYAMGWYRQAPGKERELVAAISCRGGRTYYADSVKGRFTISRDNAKNTVYLQMNSLKPEDTAVYYCNRAYLLRPDLYDYWGQGTQVTVSS”, the “polyreactivity (PSR sort gate)” value was “low polyreactivity”.
For “QVQLVESGGGLVQAGGSLRLSCAASGFTFRYYAMGWYRQAPGKERELVAGISRGGSTYYADSVKGRFTISRDNAKNSVYLQMNSLKPEDTAVYYCAARSYARKSYEMGYWGQGTQVTVSS”, the “polyreactivity (PSR sort gate)” value was “high polyreactivity”.
With “QVQLVESGGGIVQAGGSLRLSCAASGRIFGYYAMGWYRQAPGKERELVARISSSGGSTYYADSVKGRFTISRDNAKNTVYVQMNSLKPEDTAVDYCNTASNRYPGWRAEFDYWGQGTQVTVSS” the “polyreactivity (PSR sort gate)” value was “low polyreactivity”.
In the case of “QVQLVESGGGLVQAGGSLRLSCAASGSTFEYNAKGWYRQAPGKERELVASSTNYADSVKGRFTISRDNAKNTVYFQMNSLKPEDTAVYYCAARSLRYPYDYWGQGTQVTVSS”, the “polyreactivity (PSR sort gate)” value is reported as “low polyreactivity”.
In the case of “QVQLVESGGGLVQAGGSLRLSCAASGPTFNRYTMGWYRQAPGKERELVATITGGGSTNYADSVKGRFTISRDNAKNTVYLQMNSLKPEDTAVYYCARAVVQSRGPPRYKTPYDYWGQGTQVTVSS”, the “polyreactivity (PSR sort gate)” value is reported as “low polyreactivity”.
In the case of “QVQHVESRRGLVQAGGSLRLSCAASGFTFYSYAMGWYRQAPGKEREFVAAGSTYYADSVKGRFTISRDNAKNTDYLQMNSLKPEDTAVYYCATDPIGGWTRPQRYGDDYWGQGTQVTVSS”, the “polyreactivity (PSR sort gate)” value is reported as “low polyreactivity”.
With “QVQLVESGGGLVQAGGSLRLSCPASGSISRQYAMGWYRQAPGKERELVAAITVRGGSTYYADSVKGRFTISRDNAKNTVYLQMNSLKPEDTAVYYCAKYTRYSASYDYWGQGTQVTVSS” the “polyreactivity (PSR sort gate)” value was “high polyreactivity”.
With “QVQLVESGGGLVQAGGSLRLSCAASGFIFRWYAMGWSRQAPGKERELVAAISRSGDSTYYADSVKGRFTISRDNAKNTVYLQMNSLKPEDSAVYYCAADDRYYTYGYDYWGQGTQVTVSS” the “polyreactivity (PSR sort gate)” value was “low polyreactivity”.
In the case of “QVQLVESGGGLVQAGGSLRLSCAASGFIFGRYTMGWYRQATGKERELVAAISGSDVTTYYADSVKGRFTISRDNAKNTVYLQMNSLKPEDTAVYYCAADSPWAYYEYDYWGQGTHVTVSS”, the “polyreactivity (PSR sort gate)” value is reported as “low polyreactivity”.
For “QFQLVDSGRGLVQAGGSLRVSCAASGITFAYYAMGWYRQAPGKERELVAAISRSGGGTYYADSVKGRFTISRDNAKNPVYLQMNSLKPEDTAVYYCNKDYPYYYAGDGRFDYWGQGTQVTVSS”, the “polyreactivity (PSR sort gate)” value was “high polyreactivity”.
In the case of “QVQLVESGGGLVQAGGSLRLSCGASGRTFAIYVMGWYRQAPGKERELVAAISRGGSTYYADSVKGRFTISRDNAKNTVYLQMNSLKPEDTAVYYCAAGTGTTSRYYYWGQGTQVTVSS”, the “polyreactivity (PSR sort gate)” value is reported as “high polyreactivity”.
With “QVQLVESGGGLVQAGGSLRLSCAASGFIFQWYAMGWYRPAPGKERELVAGISAGSTNYADSVKGRFTISRDNAKNTVYLQMNSLKPEDTAVYYCAARDYYIPYYSPGYPYDYWGQGTQVTVSS” the “polyreactivity (PSR sort gate)” value was “high polyreactivity”.
In the case of “QVQLVESGVRLVQAGGSLLLSCAASGFTFHKNDMGWYRQAPGKERELVATISKSGGSTYYADSVKGRFTISRDNAMNTVYLQMNSLKPEDTAVYYCARRYRDYGRYGYWGQGTQVTVSS”, the “polyreactivity (PSR sort gate)” value is reported as “high polyreactivity”.
For “QVQLVESGGGLVQAGGSLRLSCADSGVIFVGYAMGGYRQAHGKERELVASIDGRVGSTYYADSVKGRFTISRDNAKITVYLQMNSLKPEDTAVYYCAAGGRAVRIYWGYYRTSYDYWGQGTQVTVSS”, the “polyreactivity (PSR sort gate)” value was “low polyreactivity”.
With “QVQLVESGGGLVQAGGSLRLSCAASGSTFGRNAMGWYRQAPGKERELVASISRRGGSTYYADSVKGRFTISRDNAKNTVYLQMNSLKPEDTAVYYCNARYYFSDYGYWGQGTQVTVSS” the “polyreactivity (PSR sort gate)” value was “high polyreactivity”.
For “QVQLVESGGGLVQAGGSLRLSCAASGRTFVRNAMGWYRQAPGKERELVAAISRGGRTNYADSVKGRFTISRDNAKNTVYLQMNSLKPEDTPVYYCATGAGYYSDYDYWGQVTQVTVSS”, the “polyreactivity (PSR sort gate)” value was “high polyreactivity”.
For “QVHLVESGGCLVQAGGSLRLSCAASGRIFGLYAMGWYRPAPGKESELVAAISEGGGSTNYADSVKWRFTISRDNAKNTVYLQMNILKPEDTAVYYCAATYRTGVRRYYSWGQGTQVTVSS”, the “polyreactivity (PSR sort gate)” value was “low polyreactivity”.
With “QVQLVESGGGLVQAGGSLRLSCAASGRIFRFYAMGWYRQAPRKERELVAAITSGGSTYYADSVKGRFTISRDNAKNTVYLQMNSLKPEDTAVYYCANYYWGQGTQVTVSS” the “polyreactivity (PSR sort gate)” value was “low polyreactivity”.
With “QVQLVESGGGLVQAGGSLRLSCAASGRTFAYYAMGWYRQAPGKERELVAAIDSSGGSTYYADSVKARFTISRDNAKNTVYLQMNSLKPEDTADYYCAASYPYDRYDQGGYGYWGQGTQVTVSS” the “polyreactivity (PSR sort gate)” value was “low polyreactivity”.
For “QVQLVESGGGIVQAGGILRLSCAASGSTFAGNGMGWYRQAPGKERELVAGIDVTGGSKYYADSVKGRYTISRDNAKNTVYLQMNSLKPEDTAVFDCNARYVYHSSFAGFDYWGQGTQVTVSS”, the “polyreactivity (PSR sort gate)” value was “low polyreactivity”.
In the case of “QVQLVESGGGLVQAGGSLRLSCAASGGIFSRYGLGWYRQAPGKERELVAAITGRGGSTYYADSVKGRFTISRDNAKNTVYLQMNSLKPEDTAVDYCAAKVRSLNWFDYWGQGTQVTVSS”, the “polyreactivity (PSR sort gate)” value is reported as “high polyreactivity”.
In the case of “QVQLVESGGGLVQAGGSLRLSCAASGIIFVWYTMGWYRQAPGKERELVAAIDSIGDGTYYADSVKGRFTISRDNAKNTVYLQMNSLKPEDTAVYYCAVDDYYEMDYWGQGTQVTVSS”, the “polyreactivity (PSR sort gate)” value is reported as “low polyreactivity”.
In the case of “QVQLVESGGGLVQAGGSLRLSGAASGRIFYYNTMGWYRQAPGKEWEVVAAISSTAYTTYADSVKGRFTISRDNAKNTVYLQMYSLKPEDTAVYYCAAYRYSRYRQRYNYWGQGTQVTVSS”, the “polyreactivity (PSR sort gate)” value is reported as “high polyreactivity”.
In the case of “QVQLVESGGGLVQAGGSLRISCAASGSTFFRNAMGRYRQAPGKERELVAAITWSGGSTYYADSVKGRFTISRDNAKNTVYLQMNSLKPEDTAVYYFAAGLSYWTPHYYPFDYWGQGTQVTVSS”, the “polyreactivity (PSR sort gate)” value is reported as “low polyreactivity”.
In the case of “QVQLVESGGGLVQAGGSLRLSCAASGRIFKQYTMGWYRQAPGKERELVAAITSSGAGTFYADSVKGRFTISRDNAKNTVYLQMNSLKPEDTAVDYCAAAYYYASRMDYWGQGTQVTVSS”, the “polyreactivity (PSR sort gate)” value is reported as “high polyreactivity”.
In the case of “QVQLVESGGGLVQAGGSLRLSCAASGSTFVPNAMGWYRQAPGKERELVAAITVDGDDTYYADSVKGRFTISRDNAKNTVYLQMNSLKPEDTAVYYCAAEQDPWTSRYVFFASRYDYWGQGTQVTVSS”, the “polyreactivity (PSR sort gate)” value is reported as “low polyreactivity”.
